Assay [1] concerns the target T1, human full-length CD33 (CD33^FL) expressed on cells (human, UniProt P20138 18-364).
T1 construct: Expressed on engineered REH (or RS4;11) sublines
The experiment in a line: flow cytometry on REH subline expressing CD33^FL.

The target of assay [2] is T2, ΔE2 version of human CD33 (CD33^ΔE2) expressed on cells (human, UniProt P20138 1-364).
T2 construct: Expressed on engineered REH sublines; also called CD33ΔE2 isoform
The experiment in a line: flow cytometry on REH subline expressing CD33^ΔE2. For orientation: A flow cytometer gives signals particle by particle.

The target of assay [3] is T3, extracellular domain of CD33^FL with a 6-histidine-avidin tag (hsCD33-His-Avi) (human, UniProt P20138 18-256).
T3 construct: The Biacore text says only 'the corresponding soluble ectodomains'; it includes the native signal peptide and the His-Avi tag, and no limits are stated on it; also called soluble CD33^FL ectodomain; MDT000235
In words: Biacore SPR, purified antibody and corresponding soluble ectodomain. The text has this: (§1) FIGS. 4A-4C illustrate the expression (FIGS. 4A, 4B) and characterization of two CD33^FL specific (8F5 and 5D12) and one CD33^ΔE2 specific (12B12) antibodies. Affinities for these antibodies (shown in FIG. 4C) were characterized by Biacore (Biacore, A&G Pharmaceutical, Inc., Columbia, MD) using purified antibodies and the corresponding soluble ectodomains.

Assay [4] deals with T4, extracellular domain of CD33^ΔE2 with a 6-histidine-avidin tag (hsCD33_ΔE2-His-Avi) (human).
T4 construct: The Biacore text says only 'the corresponding soluble ectodomains'; also called soluble CD33^ΔE2 ectodomain; MDT000239
T4 chain: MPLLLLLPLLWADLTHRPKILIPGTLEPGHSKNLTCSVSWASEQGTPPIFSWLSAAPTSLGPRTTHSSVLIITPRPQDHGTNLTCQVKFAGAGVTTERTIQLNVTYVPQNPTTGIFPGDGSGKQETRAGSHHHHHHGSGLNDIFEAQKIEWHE
Described as above.
From the text: as §1

In assay [5] the target is T2, ΔE2 version of human CD33 (CD33^ΔE2) …. In words: flow cytometry on engineered REH cells.
In assay [6] the target is T1, human full-length CD33 (CD33^FL) …. The experiment in a line: flow cytometry on REH cells expressing CD33^FL.
In assay [7] the target is T2, ΔE2 version of human CD33 (CD33^ΔE2) …. In words: flow cytometry on REH cells expressing CD33^ΔE2. The text has this:
FIG. 6 illustrates flow cytometry binding assay characterization of CD33^ΔE2 -specific CD33 antibodies. […] Antibodies specific for CD33^ΔE2 have not previously been described reliably in the literature. The herein-described CD33^ΔE2 specific antibodies will be useful, including for determining expression profiles of this isoform across healthy and diseased individuals. REH=human CD33^neg lymphoid cells.

The target in assay [8] is T1, human full-length CD33 (CD33^FL) …. In words: flow cytometry on REH cells, legend of FIG. 7.
The target in assay [9] is T3, extracellular domain of CD33^FL with a …. The experiment in a line: Biacore SPR, value quoted from FIG. 4C.
From the text: as §1

Numbering of substitutions follows the chain as printed.

The source of these data is patent US20250034250A1 (published 2025).

The term Kd denotes the concentration at which binding is half-saturated. Low values mean a tighter complex, high ones a looser complex.

T1 sequence (P20138 18-364 limits assumed): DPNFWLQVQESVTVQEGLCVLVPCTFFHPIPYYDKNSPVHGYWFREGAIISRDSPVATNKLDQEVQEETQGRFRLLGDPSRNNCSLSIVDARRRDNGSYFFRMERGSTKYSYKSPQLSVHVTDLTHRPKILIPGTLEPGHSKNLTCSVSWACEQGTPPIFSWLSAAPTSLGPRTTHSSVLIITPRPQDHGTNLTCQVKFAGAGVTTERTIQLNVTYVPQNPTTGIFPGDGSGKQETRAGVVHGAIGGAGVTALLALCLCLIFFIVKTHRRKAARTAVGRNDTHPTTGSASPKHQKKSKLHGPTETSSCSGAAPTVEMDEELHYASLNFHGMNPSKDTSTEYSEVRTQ

B1: anti-CD33 antibody 2D5 (antibody, V domains shown)
VH: QVQLQQSGAELVRPGASVTLSCKASGYTFTDYDMHWVKQTPVHGLEWIGAIDPETGGTAYNQNFKGKAILTVDKSSRIAYMELRSLTSEDSAVFYCTSDYDYFGVWGTGTTVTVSS
VL: DIVMTQSQKFMSTSVGDRVSVTCKASQNVGTNVVWYHKKPGQSPKGLIYSASDRYSGVPDRFTGSGSGTDFTLTINNVQSEDLAEYFCQQYNIYPYTFGGGTKLEIKR
notes: the antibody was raised in mice
Consider B1, for which the binding result in [1] and in assay [2] was “binds” in each case.

B2: anti-CD33 antibody 8F5 (antibody, mouse IgG2a, kappa, V domains shown)
VH: EVKLVESGGGLVQPGGSLKLSCAASGFTFSDFYMYWVRQTPEKRLEWVAFISNAGVTTYYPDTVEGRFTISRDNAKNTLYLQMSRLMSEDTAMYYCTKSDYDGAWFPYWGQGTLVTVSA
VL: DIVMSQSPSSLPVSVGEKVTLSCKSSQSLLYSRNQYNFLAWYQQRPGQSPKLLIYWASTRESGVPDRFTGSGSGTDFTLTISSVKAEDLAVYYCQQYYSYPYTFGGGTKLEIKR
notes: Mouse IgG2a
B2 gave a Kd in assay [3] of 8 nM.

B3: anti-CD33 antibody 12B12 (antibody, V domains shown)
VH: EVQLQQSGTVLARPGASVKMSCKASGYTFTTYWMHWIKQSPGQGLEWIGAIYPGNSDTSYNQKFKGKAKLTAVTSASTAYMELSSLTNEDSAVYYCEIYDGYHFIYWGQGTTLTVSS
VL: DIVMTQAAFSNPVTLGTSASISCRSSQSLLHSNGITYLYWYLQKPGQSPQLLIYQMSNLASGVPDRFSSSGSGTDFTLRISRVEAEDVGVYYCAQNLELPPTFGGGTKLEIKR
notes: Mouse IgG2b
Molecule B3 displayed a Kd in assay [4] of 8 nM.

B4: anti-CD33 antibody 11D5 (antibody, V domains shown)
VH: EVQFQQSETVLARPGTSVKLSCKASGYTFTSYWMHWLKQRPGQGLEWIGAIYCGNSDTSYNQKFKGKAKLTAVTSATTAYMELSSLTNEDSAVYYCKIYDGYHFDYWGQGTTLTVSS
VL: B3 VL with S26N, Q27K
notes: Mouse IgG1
In the case of B4, the binding result in assay [5] is recorded as “binds”.

B5: anti-CD33 antibody 7E7 (antibody, V domains shown)
VH: QVTLKESGPGILQPSQTLSLTCSFSGFSLNSYGMGIGWIRQPSGKGLEWLAHIWWDDNKYYKPDLKSRLTVSKDTSKNQVFLKIANVDTTDTATYFCARDGGYSLFAYWGQGTLVTVSV
VL: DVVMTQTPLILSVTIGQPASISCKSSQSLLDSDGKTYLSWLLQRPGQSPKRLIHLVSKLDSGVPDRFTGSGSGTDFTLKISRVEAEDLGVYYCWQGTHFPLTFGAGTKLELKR
notes: Mouse IgG1
With B5, the binding result is given as “no binding” in assay [6] and “binds” in assay [7].

B6: anti-CD33 antibody 5E10.7 (antibody, V domains shown)
VH: QVQLQQPGAEFVKPGASVKLSCKASGYTFTSYWMQWVKQRPGQGLEWIGEIDSSDSYTNYNQKFKGMATLTVDRSSSTAYMQLSSLTSEDSAVYYCARSRPYDWFPYWGQGTLVTVST
VL: DIKMTQSPSSIYASLGERVTITCKASQDIKSYLSWYQQKPRKSPKTLIYYATTLADGVPSRFSGSGSGQDFSLTISSLESDDTATYYCLHHSESPWTFGGGTKLEIKR
notes: Mouse IgG1
For the molecule B6, the binding result in assay [8] and in [7] was “binds” each time.

B7: anti-CD33 antibody 5D12 (antibody, V domains shown)
VH: QVQLQQSGAEVVKPGASVKISCRASGYAFSNYWMNWVKQRPGKGLEWIGQIYPGNFNTDYNGQFKGKATLTVDKSSNTAYMQLSSLTSEDSAVYFCARFFDFGAYFTLDYWGQGTSVTVSS
VL: B6 VL with T22N, R41W, F71Y, S92G, G100E
notes: Mouse IgG2a
Take B7: the Kd in assay [9] turned out to be 0.122 nM; in [3] it was 0.112 nM.

B8: anti-CD33 antibody 1H7 (antibody, V domains shown)
VH: QVQLQQSGAELVKPGASVKISCKASGYAFSNYWMNWVKQRPGKGLEWIGQINPGDGDTNYNGKFKGKATLTADKSSSTAYMQLSSLTSEDSAVYFCAREDRDYFDYWGQGTTLTVSS
VL: DIQMTQTTSSLSASLGDRVTISCRASQDINYYLNWYQQKPDGTVKLLIYYSSRLHSGVPSRFSGSGSGTDFSLTISNLEQEDIATYFCQQDDALPYTFGGGTKLEIKR
notes: Raised in mice; The entries include a secretion leader; also called CD33PAN antibody
As to B8, the binding result in assay [6] and in assay [7] was “binds” throughout.

B9: anti-CD33 antibody 11D11 (antibody, V domains shown)
VH: EVNLVESGGGLVQSGRSLRLSCATSGFTFSDFYMEWVRQAPGKGLEWIAASRNKANDYTTEYKASVKGRFIVSRDTSQSILYLQMNALRAEDTAIYYCTRDTGPMDYWGQGTSVTVSS
VL: B8 VL with N30S, Y31N, S51T, F71Y, D91G, D92S, A93T, Y96P
notes: Mouse IgG1
For B9, in [7], the binding result is reported as “binds”.
